B1: Transgelin-2 (Homo sapiens), P37802 (parent)
chain: MANRGPAYGLSREVQQKIEKQYDADLEQILIQWITTQCRKDVGRPQPGRENFQNWLKDGTVLCELINALYPEGQAPVKKIQASTMAFKQMEQISQFLQAAERYGINTTDIFQTVDLWEGKNMACVQRTLMNLGGLAVARDDGLFSGDPNWFPKKSKENPRNFSDNQLQEGKNVIGLQMGTNRGASQAGMTGYGMPRQIL

Variants of: B1
Conditions: with actb_human ACTB

| Variant | effect of a mutation on the interaction |
| --- | --- |
| S83A | increasing interaction |
| S83D | decreasing interaction |
| S163A | increasing interaction |
| S163D | decreasing interaction |

Source: IntAct's records for PubMed 21577206
